Measurements taken from the MegaScale stability set (Tsuboyama et al. 2023).

B1: EEHEE_rd4_0003 (parent)
chain: KKVTINGVEIKFNNPEEAVKFALELAKRLNLRIEFHGDQIKIE

Variants of: B1
Assay: folding stability dG (cDNA display proteolysis); higher = more stable
Settings: PBS, room temperature

Row | Variant | folding stability dG
1 | KKVTINGVEIQFNNPEEAVKFALELAKRLNLRIEFHGDQIKIE [K11Q] | 2.72 kcal/mol
2 | KKVTINGVEITFNNPEEAVKFALELAKRLNLRIEFHGDQIKIE [K11T] | 2.85 kcal/mol
3 | KKVTINGVEINFNNPEEAVKFALELAKRLNLRIEFHGDQIKIE [K11N] | 2.83 kcal/mol
4 | KKVTINGVEIMFNNPEEAVKFALELAKRLNLRIEFHGDQIKIE [K11M] | 2.99 kcal/mol
5 | KKVTINGVEISFNNPEEAVKFALELAKRLNLRIEFHGDQIKIE [K11S] | 2.72 kcal/mol
6 | KKVTINGVEIIFNNPEEAVKFALELAKRLNLRIEFHGDQIKIE [K11I] | 3 kcal/mol
7 | KKVTINGVEIRFNNPEEAVKFALELAKRLNLRIEFHGDQIKIE [K11R] | 2.78 kcal/mol
8 | KKVTINGVEILFNNPEEAVKFALELAKRLNLRIEFHGDQIKIE [K11L] | 3.02 kcal/mol
9 | KKVTINGVEICFNNPEEAVKFALELAKRLNLRIEFHGDQIKIE [K11C] | 3.94 kcal/mol
10 | KKVTINGVEIYFNNPEEAVKFALELAKRLNLRIEFHGDQIKIE [K11Y] | 3.32 kcal/mol
11 | KKVTINGVEIGFNNPEEAVKFALELAKRLNLRIEFHGDQIKIE [K11G] | 2.28 kcal/mol
12 | KKVTINGVEIFFNNPEEAVKFALELAKRLNLRIEFHGDQIKIE [K11F] | 3.26 kcal/mol
13 | KKVTINGVEIDFNNPEEAVKFALELAKRLNLRIEFHGDQIKIE [K11D] | 2.3 kcal/mol
14 | KKVTINGVEIVFNNPEEAVKFALELAKRLNLRIEFHGDQIKIE [K11V] | 2.96 kcal/mol
15 | KKVTINGVEIAFNNPEEAVKFALELAKRLNLRIEFHGDQIKIE [K11A] | 2.6 kcal/mol
16 | KKVTINGVEIWFNNPEEAVKFALELAKRLNLRIEFHGDQIKIE [K11W] | 3.53 kcal/mol
17 | KKVTINGVEIEFNNPEEAVKFALELAKRLNLRIEFHGDQIKIE [K11E] | 2.77 kcal/mol
18 | KKVTINGVEIPFNNPEEAVKFALELAKRLNLRIEFHGDQIKIE [K11P] | 2.22 kcal/mol
19 | KKVTINGVEIHFNNPEEAVKFALELAKRLNLRIEFHGDQIKIE [K11H] | 3.03 kcal/mol
20 | KKVTINGVEIKDNNPEEAVKFALELAKRLNLRIEFHGDQIKIE [F12D] | 0.955 kcal/mol

Row | Variant | folding stability dG
21 | KKVTINGVEIKANNPEEAVKFALELAKRLNLRIEFHGDQIKIE [F12A] | 1.48 kcal/mol
22 | KKVTINGVEIKHNNPEEAVKFALELAKRLNLRIEFHGDQIKIE [F12H] | 1.45 kcal/mol
23 | KKVTINGVEIKYNNPEEAVKFALELAKRLNLRIEFHGDQIKIE [F12Y] | 1.89 kcal/mol
24 | KKVTINGVEIKPNNPEEAVKFALELAKRLNLRIEFHGDQIKIE [F12P] | 1.14 kcal/mol
25 | KKVTINGVEIKCNNPEEAVKFALELAKRLNLRIEFHGDQIKIE [F12C] | 3.25 kcal/mol
26 | KKVTINGVEIKQNNPEEAVKFALELAKRLNLRIEFHGDQIKIE [F12Q] | 1.13 kcal/mol
27 | KKVTINGVEIKLNNPEEAVKFALELAKRLNLRIEFHGDQIKIE [F12L] | 1.92 kcal/mol
28 | KKVTINGVEIKMNNPEEAVKFALELAKRLNLRIEFHGDQIKIE [F12M] | 1.96 kcal/mol
29 | KKVTINGVEIKSNNPEEAVKFALELAKRLNLRIEFHGDQIKIE [F12S] | 1.57 kcal/mol
30 | KKVTINGVEIKNNNPEEAVKFALELAKRLNLRIEFHGDQIKIE [F12N] | 1.33 kcal/mol
31 | KKVTINGVEIKTNNPEEAVKFALELAKRLNLRIEFHGDQIKIE [F12T] | 1.7 kcal/mol
32 | KKVTINGVEIKINNPEEAVKFALELAKRLNLRIEFHGDQIKIE [F12I] | 1.9 kcal/mol
33 | KKVTINGVEIKGNNPEEAVKFALELAKRLNLRIEFHGDQIKIE [F12G] | 1.55 kcal/mol
34 | KKVTINGVEIKRNNPEEAVKFALELAKRLNLRIEFHGDQIKIE [F12R] | 1.41 kcal/mol
35 | KKVTINGVEIKVNNPEEAVKFALELAKRLNLRIEFHGDQIKIE [F12V] | 1.86 kcal/mol
36 | KKVTINGVEIKWNNPEEAVKFALELAKRLNLRIEFHGDQIKIE [F12W] | 2.14 kcal/mol
37 | KKVTINGVEIKKNNPEEAVKFALELAKRLNLRIEFHGDQIKIE [F12K] | 1.09 kcal/mol
38 | KKVTINGVEIKENNPEEAVKFALELAKRLNLRIEFHGDQIKIE [F12E] | 0.907 kcal/mol
39 | KKVTINGVEYKFNNPEEAVKFALELAKRLNLRIEFHGDQIKIE [I10Y] | 2.99 kcal/mol
40 | KKVTINGVEKKFNNPEEAVKFALELAKRLNLRIEFHGDQIKIE [I10K] | 1.83 kcal/mol

Row | Variant | folding stability dG
41 | KKVTINGVESKFNNPEEAVKFALELAKRLNLRIEFHGDQIKIE [I10S] | 1.6 kcal/mol
42 | KKVTINGVEEKFNNPEEAVKFALELAKRLNLRIEFHGDQIKIE [I10E] | 1.36 kcal/mol
43 | KKVTINGVEWKFNNPEEAVKFALELAKRLNLRIEFHGDQIKIE [I10W] | 2.55 kcal/mol
44 | KKVTINGVEAKFNNPEEAVKFALELAKRLNLRIEFHGDQIKIE [I10A] | 1.65 kcal/mol
45 | KKVTINGVEGKFNNPEEAVKFALELAKRLNLRIEFHGDQIKIE [I10G] | 1.21 kcal/mol
46 | KKVTINGVEDKFNNPEEAVKFALELAKRLNLRIEFHGDQIKIE [I10D] | 1.28 kcal/mol
47 | KKVTINGVETKFNNPEEAVKFALELAKRLNLRIEFHGDQIKIE [I10T] | 1.78 kcal/mol
48 | KKVTINGVEQKFNNPEEAVKFALELAKRLNLRIEFHGDQIKIE [I10Q] | 1.65 kcal/mol
49 | KKVTINGVEFKFNNPEEAVKFALELAKRLNLRIEFHGDQIKIE [I10F] | 2.89 kcal/mol
50 | KKVTINGVEHKFNNPEEAVKFALELAKRLNLRIEFHGDQIKIE [I10H] | 2.49 kcal/mol
51 | KKVTINGVENKFNNPEEAVKFALELAKRLNLRIEFHGDQIKIE [I10N] | 1.5 kcal/mol
52 | KKVTINGVELKFNNPEEAVKFALELAKRLNLRIEFHGDQIKIE [I10L] | 2.6 kcal/mol
53 | KKVTINGVEPKFNNPEEAVKFALELAKRLNLRIEFHGDQIKIE [I10P] | 1.19 kcal/mol
54 | KKVTINGVECKFNNPEEAVKFALELAKRLNLRIEFHGDQIKIE [I10C] | 3.45 kcal/mol
55 | KKVTINGVERKFNNPEEAVKFALELAKRLNLRIEFHGDQIKIE [I10R] | 1.88 kcal/mol
56 | KKVTINGVEVKFNNPEEAVKFALELAKRLNLRIEFHGDQIKIE [I10V] | 2.22 kcal/mol
57 | KKVTINGVEMKFNNPEEAVKFALELAKRLNLRIEFHGDQIKIE [I10M] | 2.36 kcal/mol
58 | KKVTINGVWIKFNNPEEAVKFALELAKRLNLRIEFHGDQIKIE [E9W] | 2.73 kcal/mol
59 | KKVTINGVYIKFNNPEEAVKFALELAKRLNLRIEFHGDQIKIE [E9Y] | 2.58 kcal/mol
